Measured values reported in paper doi:10.1101/2025.11.17.688803.

Biological target: endogenous LRBA of mouse embryonic fibroblasts (mouse (endogenous in MEFs)) (UniProt Q9ESE1)
Assay: SEC

- stoichiometry N: 2
Substance: endogenous LRBA of mouse embryonic fibroblasts (from UniProt Q9ESE1 1-2856) (natural protein)
